B1: FA-OVA: folate-modified ovalbumin complex, EDC coupling of folic acid to OVA (conjugate, UniProt P01012 2-386, looked up)
Ovalbumin: GSIGAASMEFCFDVFKELKVHHANENIFYCPIAIMSALAMVYLGAKDSTRTQINKVVRFDKLPGFGDSIEAQCGTSVNVHSSLRDILNQITKPNDVYSFSLASRLYAEERYPILPEYLQCVKELYRGGLEPINFQTAADQARELINSWVESQTNGIIRNVLQPSSVDSQTAMVLVNAIVFKGLWEKAFKDEDTQAMPFRVTEQESKPVQMMYQIGLFRVASMASEKMKILELPFASGTMSMLVLLPDEVSGLEQLESIINFEKLTEWTSSNVMEERKIKVYLPRMKMEEKYNLTSVLMAMGITDVFSSSANLSGISSAESLKISQAVHAAHAEINEAGREVVGSAEAGVDAASVSEEFRADHPFLFCIKHIATNAVLFFGRCVSP
modifications: folate via EDC coupling
B2: OVA: ovalbumin, model protein and allergen (protein, UniProt P01012 2-386, looked up)
Ovalbumin: B1 Ovalbumin

Key:
[1] = tested on: splenic B lymphocytes; test: Splenic B lymphocyte proliferation (CD86) and differentiation (GL-7) after three weekly injections; format: in vivo, BALB/c female mice; conditions: 10 μg/mouse tail vein, once a week, three times; one week after last administration
From the text: (§1) The role of folate modification in mediating humoral immunosuppression and in reducing Anti-Drug Antibodies (ADA) of biomacromolecular drugs was investragated by using ovalbumin (OVA) as a model protein. OVA has strong immunogenicity and can induce the body to produce an immune response. Repeated stimulation of mice by OVA can cause the mice to produce lots of specific antibodies. The BALB/c female mice (5 weeks old) were randomly divided into FA-OVA (folate-OVA complex. Example 1) group, OVA group and physiological saline control group, with 6 mice in each group. FA-OVA, OVA and physiological saline were administered to mice via tail vein injection at a dose of 10 μg/mouse, once a week, three times in total.
One week after the last administration, the spleen lymphocyte suspension was collected and subjected to flow cytometry for analysis of proliferation and differentiation of splenic B lymphocytes. CD86 was used as a marker for cell proliferation, and GL-7 was used as germinal center B-cell surface marker. FIGS. 11a and 11b provide the CD86 flow sorting graphs and statistical analysis results of mouse spleen lymphocytes, respectively. FIGS. 11c and 11d provide the GL7 flow sorting graphs and statistical analysis results of mouse spleen lymphocytes, respectively.

[2] = tested on: OVA-specific antibodies; test: Serum OVA-specific antibodies by ELISA after three weekly injections; format: in vivo, BALB/c female mice; conditions: 10 μg/mouse tail vein, once a week, three times; one week after last administration
From the text: as §1
One week after the last administration, the serum of the mice was collected and was measured by ELISA for the expression of OVA-specific antibodies in the serum. The results are shown in FIG. 12, wherein FIGS. 12a, 12b, 12c and 12d show the results of OVA-specific IgE, IgG, IgG1 and IgG2a, respectively.

[3] = tested on: anaphylactic shock induced by OVA (allergen); test: Prevention of anaphylactic shock: pretreatment, then OVA challenge; format: in vivo; conditions: pretreatment 10 μg OVA/mouse iv weekly x3, challenge 10 μg OVA
Method: The BALB/c female mice (5 weeks old) were randomly divided into FA-OVA group, OVA group and physiological saline group, with 10 mice in each group. FA-OVA or OVA or physiological saline of an equal volume was administered to the mice via tail vein injection at a dose of 10 μg OVA/mouse, once a week for a total of three times. One week after the last administration, each mouse was injected with 10 μg OVA (allergen) via tail vein. Changes in body temperature of the mice within 2 hours after OVA stimulation were recorded (FIG. 18). In the meanwhile, the serum was collected from the mice, and was measured by ELISA for the expression of OVA-specific antibodies in the serum (FIG. 19). […] Therefore, folate modification can effectively prevent anaphylactic shock induced by allergens.

[4] = Water solubility (observation on preparation); format: physicochemical
[5] = Blood routine analysis one week after last administration; format: in vivo, BALB/c female mice; conditions: 10 μg/mouse tail vein weekly x3
From the text: as §1
In addition, the whole blood of the mice was collected one week after the last administration for blood routine analysis.

| Molecule | BASO [5] | HCT [5] [%] | HGB [5] [g/L] | LYMPH [5] | MCH [5] [pg] | MCHC [5] [g/L] | MCV [5] [fL] | MONO [5] | MPV [5] [fL] | NEYT [5] | NRBC [5] | P-LCR [5] [%] | PCT [5] [%] | PDW [5] [fL] | PLT [5] | RBC [5] | RDW-CV [5] [%] | WBC [5] | other results |
| --- | --- | --- | --- | --- | --- | --- | --- | --- | --- | --- | --- | --- | --- | --- | --- | --- | --- | --- | --- |
| OVA: ovalbumin, model protein and allergen [reference compound] |  |  |  |  |  |  |  |  |  |  |  |  |  |  |  |  |  |  | proliferation of B-cell (CD86) and differentiation into germinal center B-cell (GL-7) [1]: proliferated significantly and differentiated into the germinal center B-cell; expression of OVA-specific antibodies in the serum (IgE, IgG, IgG1, IgG2a) [2]: a large amount of OVA-specific antibodies; body temperature within 2 hours after OVA stimulation [3]: dropped significantly; serum OVA-specific antibodies (IgE, IgG1, IgG2a) after challenge [3]: a large number of OVA-specific antibodies |
| B1 | 0 10*9/L | 49.83 ± 4.53 | 161.50 ± 9.26 | 2.78 ± 0.19 10*9/L | 16.28 ± 0.59 | 325.00 ± 12.35 | 50.075 ± 1.37 | 0.035 ± 0.0058 10*9/L | 7.05 ± 0.058 | 0.94 ± 0.23 10*9/L | 0.015 ± 0.013 10*9/L | 4.35 ± 1.01 | 0.41 ± 0.042 | 5.58 ± 0.096 | 586.50 ± 59.29 10*9/L | 9.96 ± 0.89 10*12/L | 14.78 ± 0.50 | 3.77 ± 0.42 10*9/L | water solubility [4]: easily soluble in water |
| B2 | 0 10*9/L | 52.15 ± 5.97 | 169.25 ± 13.45 | 2.58 ± 0.29 10*9/L | 16.08 ± 0.67 | 325.75 ± 16.50 | 49.43 ± 0.43 | 0.035 ± 0.017 10*9/L | 7.10 ± 0.14 | 0.80 ± 0.21 10*9/L | 0.025 ± 0.013 10*9/L | 5.15 ± 1.48 | 0.45 ± 0.016 | 5.53 ± 0.15 | 635.00 ± 36.59 10*9/L | 10.55 ± 1.13 10*12/L | 14.63 ± 0.33 | 3.43 ± 0.51 10*9/L | anaphylactic shock / death after OVA challenge ([3]; 10 mice per group): two mice died |

Source: patent publication US20230381183A1, “USE OF FOLIC ACID AND FOLATE MODIFICATION IN INDUCING B-CELL IMMUNE TOLERANCE AND TARGETING mIgM-POSITIVELY-EXPRESSED B-CELL LYMPHOMA” (FUDAN UNIVERSITY, priority 2020, published 2023)
